Measured values from US20230303698A1 (published 2023).

How the values were obtained:
human 4-1BB [1] = target: T1, human 4-1BB (human, UniProt Q07011 24-255); assay: FACS; FIG. 5
human 4-1BB [2] = target: T1, human 4-1BB; assay: FACS; panel B
human 4-1BB [3] = target: T1, human 4-1BB; assay: FACS; FIG. 6
human 4-1BB [4] = target: T1, human 4-1BB; assay: FACS
human 4-1BB [5] = target: T1, human 4-1BB; assay: FACS; panel C
human 4-1BB [6] = target: T1, human 4-1BB; assay: FACS; panel A
human 4-1BB [7] = target: T1, human 4-1BB; assay: FACS; panel B; remark: listed apart in the source
human 4-1BB [8] = target: T1, human 4-1BB; assay: FACS; panel A; remark: listed apart in the source

EC50 (human 4-1BB [1]): 0.459 nM | EC50 (human 4-1BB [2]): 0.347 nM | EC50 (human 4-1BB [3]): 0.459 nM | EC50 (human 4-1BB [4]): 1.51 nM | EC50 (human 4-1BB [5]): 1.51 nM | EC50 (human 4-1BB [6]): 1.01 nM | EC50 (human 4-1BB [7]): 0.794 nM | EC50 (human 4-1BB [8]): 0.424 nM
B1: Anti-4-1BB monoclonal antibody urelumab analog (antibody, V domains shown)
VH: QVQLQQWGAGLLKPSETLSLTCAVYGGSFSGYYWSWIRQSPEKGLEWIGEINHGGYVTYNPSLESRVTISVDTSKNQFSLKLSSVTAADTAVYYCARDYGPGNYDWYFDLWGRGTLVTVSS
VL: EIVLTQSPATLSLSPGERATLSCRASQSVSSYLAWYQQKPGQAPRLLIYDASNRATGIPARFSGSGSGTDFTLTISSLEPEDFAVYYCQQRSNWPPALTFGGGTKVEIKR
